Laboratory results published in patent publication US9540424B2, “Serum albumin binding molecules” (BRISTOL-MYERS SQUIBB COMPANY, priority 2010, dated 2017).
Where “and” joins values, the source holds several entries; their conditions need not be identical. Equal entries are not always repeated. No end group written: not given here.

Legend:
human NPY Y4 receptor = target: T1, human NPY Y4 receptor (Homo sapiens, UniProt P50391); experiment: GTPγS binding functional assay: NPY Y4 receptor membranes; type: biochemical
T1 construct: expressed in transfected cells; host or cells: CHO cells (membrane preparation)
From the text: Peptide YY (PYY) and pancreatic polypeptide (PP) are native satiety factors secreted from intestine and pancreas, respectively, in response to food ingestion, and are reduced upon fasting. PYY and PP may both be isolated in their full-length form which are 36-residue peptide amides. PYY can also be further cleaved by the enzyme DPPIV into a shorter biologically active form PYY(3-36). Peripheral injection of PYY(3-36) or PP causes reduction in food intake and body weight in animal models and in humans. Patients with morbid obesity have both reduced basal and meal-stimulated PYY(3-36) and/or PP levels. In contrast, patients with anorexia, or weight loss after bypass surgery, have higher than normal plasma PYY(3-36) and/or PP. Agonism of PYY(3-36) and PP are of great therapeutic value in treating obesity and metabolic diseases. NPY Y2 and Y4 are receptors with the highest affinity to PYY(3-36) and PP, respectively. NPY receptors belong to the G-protein coupled receptor family. Upon agonist stimulation, the NPY receptor may stimulate the down-streamed G-protein, exchanging its bound GDP for a GTP. […]
One T150 flask of recombinant CHO cells over-expressing human NPY Y2 or Y4 receptors were grown in F-12 medium (HAM, with L-glutamine) with G418 at 0.5 mg/ml until confluent. […] Protein concentration was measured and aliquots were stored at −80° C. until use. […]

HEK parental cells = experiment: cAMP levels in HEK parental cells; type: cell-based, human
[1] = Analytical size exclusion chromatography (SEC) of SABAs; type: physicochemical; settings: midscaled material
Method: Size exclusion chromatography (SEC) was performed on the SABAs resulting from the HTPP. SEC of HTPP derived material was performed using a Superdex 200 5/150 or Superdex 75 5/150 column (GE Healthcare) on an Agilent 1100 or 1200 HPLC system with UV detection at A214 nm and A280 nm and with fluorescence detection (excitation=280 nm, emission=350 nm). A buffer of 100 mM sodium sulfate, 100 mM sodium phosphate, 150 mM sodium chloride, pH 6.8 at appropriate flow rate of the SEC column employed. Gel filtration standards (Bio-Rad Laboratories, Hercules, Calif.) were used for molecular weight calibration.
Midscale expression and purification yielded highly pure and active Adnectins™ that were expressed in a soluble form and purified from the soluble fraction of the bacterial cytosol.
Standard size exclusion chromatography (SEC) was performed on the candidate SABAs resulting from the midscale process. SEC of midscaled material was performed using a Superdex 200 10/30 or on a Superdex 75 10/30 column (GE Healthcare) on an Agilent 1100 or 1200 HPLC system with UV detection at A214 nm and A280 nm and with fluorescence detection (excitation=280 nm, emission=350 nm). A buffer of 100 mM sodium sulfate, 100 mM sodium phosphate, 150 mM sodium chloride, pH 6.8 at appropriate flow rate of the SEC column employed. Gel filtration standards (Bio-Rad Laboratories, Hercules, Calif.) were used for molecular weight calibration.

[2] = Differential Scanning calorimetry (DSC) thermostability of midscaled SABAs; type: physicochemical; settings: 1 mg/ml solution, 5° C. to 95° C. at 1 degree per minute
Method: Differential Scanning calorimetry (DSC) analyses of the midscaled SABAs were performed to determine their respective Tm's. A 1 mg/ml solution was scanned in a N-DSC II calorimeter (calorimetry Sciences Corp) by ramping the temperature from 5° C. to 95° C. at a rate of 1 degree per minute under 3 atm pressure. The data was analyzed vs. a control run of the appropriate buffer using a best fit using Orgin Software (OrginLab Corp).

RhSA = RhSA (Macaca mulatta, UniProt Q28522); experiment: Biacore kinetics of SABAs on immobilized serum albumin: RhSA; type: binding, rhesus
Method: (§1) In addition, binding to albumin was carried out under various pH conditions ranging from pH 5.5 to pH 7.4.

MuSA = MuSA (Mus musculus, UniProt P07724); experiment: Biacore kinetics of SABAs on immobilized serum albumin: MuSA; type: binding
[3] = Half-life of HSA and of SABA1-4 with or without HSA in mice (ELISA, WinNonlin); type: in vivo, Ncr nude female mice; settings: for half-life in mice plasma: injected without HSA; for increase in half life when co-injected with HSA: with HSA vs without HSA, mice
Method: The pharmacokinetic parameters of each Adnectin™ were determined using non-compartmental modeling with WinNonlin software.

Human serum albumin = target: T2, Human serum albumin (Homo sapiens, UniProt P02768); experiment: SPR (ProteOn XPR36) binding of SABA-neuropeptide fusions to Human Serum Albumin; settings: 25° C., average of two experiments
T2 construct: purchased Novozymes Recombumin
Method: Surface Plasmon Resonance (SPR) is a direct binding technique by which molecular interactions can be observed in real time. For these experiments, SPR binding studies were performed using a ProteOn XPR36 instrument (BioRad Laboratories). The running buffer, phosphate buffered saline 0.05% Tween 20 pH 7.4, was purchased from Teknova (cat #P1192) and all experiments were run at 25° C. Human serum albumin was directly immobilized on a BioRad GLC chip via amine coupling as per manufacturer's guidelines using amine coupling reagents purchased from BioRad Laboratories. Human serum albumin was purchased from Novozymes (Recombumin™). About 5000 resonance units (RU) of human serum albumin were immobilized onto 4 separate lanes of the GLC chip surface. For each analyte, five concentrations ranging from 15.6 nM to 250 nM were injected over the surface at 30 μl/min for 240 seconds. The dissociation was monitored for 600 seconds. The surface was regenerated with 100 mM HCl. The resultant data were fitted to a Langumuir 1:1 binding model using the ProteOn Manager Software. The experiment was repeated with a different concentration range. In this second experiment, 5 concentrations ranging from 500 nM to 32 nM were injected over the surfaces, and the data analyzed as above. The KD is the disassociation constant. Smaller numbers indicate tighter binding to serum albumin. Molecules covalently attached to SABA that bind to serum albumin display longer in vivo pharmokinetic half-lives, as described earlier with respect to SABA-FGF-21 fusions.

[4] = Single dose pharmacokinetics of SABA1.1 and SABA5.1 in cynomolgus monkeys; type: in vivo; settings: 1 mpk IV
Method: The pharmacokinetics were evaluated using a quantitative ELISA-based assay that was developed to detect the Adnectin™ in plasma samples.

HSA = HSA (Homo sapiens, UniProt P02768)
Method: as §1

[5] = co-injected with HSA (3-4 molar excess), tail vein

Sequence of MuSA (P07724 25-608): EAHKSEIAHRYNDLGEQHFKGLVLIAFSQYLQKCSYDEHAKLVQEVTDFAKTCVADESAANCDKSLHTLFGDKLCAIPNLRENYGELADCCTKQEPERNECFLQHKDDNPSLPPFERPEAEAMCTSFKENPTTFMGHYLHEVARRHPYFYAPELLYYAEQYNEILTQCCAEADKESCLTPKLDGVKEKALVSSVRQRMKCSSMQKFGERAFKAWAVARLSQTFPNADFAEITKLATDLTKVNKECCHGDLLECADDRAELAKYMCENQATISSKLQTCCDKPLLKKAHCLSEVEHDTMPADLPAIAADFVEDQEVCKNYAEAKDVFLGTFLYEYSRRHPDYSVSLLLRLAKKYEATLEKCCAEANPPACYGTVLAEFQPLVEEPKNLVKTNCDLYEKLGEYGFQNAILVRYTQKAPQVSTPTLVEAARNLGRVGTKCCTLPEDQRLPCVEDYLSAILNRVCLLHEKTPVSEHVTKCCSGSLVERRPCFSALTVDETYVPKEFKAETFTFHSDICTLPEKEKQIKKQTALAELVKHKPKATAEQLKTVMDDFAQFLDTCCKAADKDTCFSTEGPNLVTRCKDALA
Sequence of RhSA (Q28522 17-600): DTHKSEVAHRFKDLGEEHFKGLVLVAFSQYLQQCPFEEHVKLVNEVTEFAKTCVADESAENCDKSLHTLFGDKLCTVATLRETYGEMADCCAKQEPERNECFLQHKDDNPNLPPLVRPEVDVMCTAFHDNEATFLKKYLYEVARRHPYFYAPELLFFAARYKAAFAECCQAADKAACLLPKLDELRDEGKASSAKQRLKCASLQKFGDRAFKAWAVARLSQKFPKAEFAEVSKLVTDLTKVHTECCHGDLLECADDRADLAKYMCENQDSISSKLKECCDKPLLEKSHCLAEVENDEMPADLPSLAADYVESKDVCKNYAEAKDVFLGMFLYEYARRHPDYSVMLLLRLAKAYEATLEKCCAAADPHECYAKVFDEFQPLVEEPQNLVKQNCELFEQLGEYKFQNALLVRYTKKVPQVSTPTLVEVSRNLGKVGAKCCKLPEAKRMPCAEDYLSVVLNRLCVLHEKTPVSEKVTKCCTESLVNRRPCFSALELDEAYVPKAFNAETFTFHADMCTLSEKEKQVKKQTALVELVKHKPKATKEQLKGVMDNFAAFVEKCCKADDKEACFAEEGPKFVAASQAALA
T1 sequence (P50391 whole entry): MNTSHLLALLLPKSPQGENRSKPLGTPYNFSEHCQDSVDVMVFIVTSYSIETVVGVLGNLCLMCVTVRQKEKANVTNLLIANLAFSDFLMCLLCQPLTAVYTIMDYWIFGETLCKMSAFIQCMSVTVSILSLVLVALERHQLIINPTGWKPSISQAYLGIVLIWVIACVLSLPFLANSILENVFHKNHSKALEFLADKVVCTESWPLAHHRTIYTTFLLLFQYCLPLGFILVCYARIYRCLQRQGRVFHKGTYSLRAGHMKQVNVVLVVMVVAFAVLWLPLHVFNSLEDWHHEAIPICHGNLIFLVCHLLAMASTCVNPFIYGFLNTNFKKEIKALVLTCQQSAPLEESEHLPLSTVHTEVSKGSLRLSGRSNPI

Molecule | effect on cAMP levels in the HEK parental cells (HEK parental cells) | SEC Dimer (%) [1] | SEC Monomer (%) [1] [%] | DSC (Tm) [2] [°C] | cross reaction with RhSA (RhSA) | cross reaction with MuSA (MuSA) | PK (T½) Mice [3, 5] [h] | half-life in mice plasma [3] [h] | increase in half life when co-injected with HSA [3] [fold] | also measured
APLEPMYPGDYATPEQMAQYETQLRRYINTLTRPRY-NH2 [PP Control Peptide] |  |  |  |  |  |  |  |  |  | Efficacy (human NPY Y4 receptor): 100; EC50 (human NPY Y4 receptor; read-out: Potency (EC50)): 1.7 nM
KCNTATCATQRLANFLVRSSNNLGPVLPPTNVGSNTY [Amylin Control Peptide, reference compound] | no significant effect |  |  |  |  |  |  |  |  | 
SABA3.1: His-tagged SABA3 sequence (protein, His6 tag) MGVSDVPRDLEVVAATPTSLLISWSNDGPGLSYYRITYGETGGNSPVQEFTVPSSQTTATISGLKPGVDYTITVYAVSYYTKKAYSAGPISINYRTEIDKPSQHHHHHH |  | BLD | 99 | 65.2 | cross reacted | did not cross react | 0.53 | 0.28 | ~2 | PK (T½) Mice ([3]; co-injected with HSA): 0.533 h; Comments: T½ in mice in words ([3]; mouse, in vivo): Poor T½ observed in mice
SABA1-AMYv25: SEQ ID NO: 328; SABA1.7-(ED)5G-Cys conjugated to Maleimide-PEG20-Amylin-CONH2 (conjugate, Maleimide-PEG20-Amylin-CONH2 conjugated via Cys) MGVSDVPRDLEVVAATPTSLLISWHSYYEQNSYYRITYGETGGNSPVQEFTVPYSQTTATISGLKPGVDYTITVYAVYGSKYYYPISINYRTEIEDEDEDEDEDGC | no significant effect |  |  |  |  |  |  |  |  | Koff (1/s) (Human serum albumin): 2.41 10^−4 1/s; Kon (1/Ms) (Human serum albumin): 9.34 10^3 1/Ms
SABA5.1: His-tagged SABA5 sequence (protein, His6 tag) MGVSDVPRDLEVVAATPTSLLISWEDDSYYSRYYRITYGETGGNSPVQEFTVPSDLYTATISGLKPGVDYTITVYAVTYDVTDLIMHEPISINYRTEIDKPSQHHHHHH |  | 12% | 88 | 70.1 | cross reacted | did not cross react | 4.6 |  |  | Comments: binding affinity for RhSA (RhSA): Poor binding affinity for RhSA.; AUCall ([4]; Mean, N 2): 246.882 µg·h/mL; Cl_obs ([4]; Mean, N 2): 4.089 mL/h/kg; Cmax ([4]; Mean, N 2): 17358 ng/mL; HL_Lambda_z ([4]; Mean, N 2): 12.186 h; Vz_obs ([4]; Mean, N 2): 0.072507 L/kg; Comments: decrease in KD observed at pH <6.0 (HSA; pH <6.0): >2-fold decrease in KD observed at
SABA1.1: core SABA1 with N-terminal MGVSDVPRDLE, C-terminal EIDKPSQ and His6 tag; SEQ ID NO: 89 (protein) MGVSDVPRDLEVVAATPTSLLISWHSYYEQNSYYRITYGETGGNSPVQEFTVPYSQTTATISGLKPGVDYTITVYAVYGSKYYYPISINYRTEIDKPSQHHHHHH |  | 7.7% | 92.3 | 63.9 | cross reacted | did not cross react | 5.6 | 0.56 | ~10 | AUCall ([4]; individual monkeys #1 and #2): 673.7 µg·h/mL and 625.1 µg·h/mL; Cl_obs ([4]; individual monkeys #1 and #2): 1.45 mL/h/kg and 1.60 mL/h/kg; Cmax ([4]; individual monkeys #1 and #2): 9030 ng/mL and 7240 ng/mL; Vz_obs ([4]; individual monkeys #1 and #2): 0.2008 L/kg and 0.3152 L/kg; t½ ([4]; individual monkeys #1 and #2): 95.8 h and 136.6 h; Resistant to pH 7.4→5.5? (HSA; binding to HSA from pH 7.4 down to pH 5.5, symbols not defined): fits biochemical criteria for pH resistance and affinity/kinetics down to pH 5.5
